Tested on: PSA
Assay: Western blot of endogenous PSA in stably transfected LNCaP cells
Assay type: cell-based, human
Conditions: stable LNCaP cells; +doxy; 1 nM DHT; vector alone without doxy = 100%
Source text: 14. […] (A) The effects of C′-ARA54 and mt-ARA54 on cell proliferation. […] Total cell number was counted by hemocytometer. Values represent the mean±SD of at least three determinations. (B) The effects of C′-ARA54 and mt-ARA54 on AR transcription activity. LNCaP cells stably transfected with pBIG2i (vector alone), pBIG2i-C′-ARA54, pBIG2i-mt-ARA54, or pBIG2i-fl-ARA54 were transiently transfected with MMTV-Luc. […] Values represent the mean±SD of at least three determinations. (C) The effects of C′-ARA54 and mt-ARA54 on PSA expression. […] The 33-kDa of protein was detected as indicated and quantitated by Collage Image Analysis software (Fotodyne). The normalized expression level in the first lane (vector alone without doxy treatment) was set as 100%. Values represent the mean±SD of three separate experiments.
395. […]

B1: C′-ARA54: C-terminal region (amino acids 361-474) of ARA54 (protein)
chain: RNEYLQADEANKRLLDQRYGKRVIQKALEEMESKEWLEKNSKSCPCCGTPIEKLDGCNKMTCTGCMQYFCWICMGSLSRANPYKHFNDPGSPCFNRLFYAVDVDDDIWEDEVED
modifications: Homo sapien
notes: C-terminal region (amino acids 361-474) of ARA54
endogenous PSA expression: 87%

Reference: US20060270591A1, “Androgen receptor coregulators” (priority 2002, published 2006)
